According to patent US20200239586A1 (LA TROBE UNIVERSITY, published 2020):
Ends that are not written are not given here. * marks the point of attachment. Biotin = O=C1N[C@H]2[C@H](CS[C@H]2CCCCC(=O)*)N1

T1: human Fn14 (human, UniProt Q9NP84 28-129)
T1 sequence: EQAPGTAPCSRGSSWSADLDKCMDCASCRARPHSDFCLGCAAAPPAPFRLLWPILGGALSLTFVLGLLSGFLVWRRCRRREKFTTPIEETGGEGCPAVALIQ

T2: synthetic peptide Sub-domain 2 Cys 4&5 ΔS (human, not fully specified; biotin on the added C-terminal lysine)
T2 construct: also called sub-domain 2 cys4&5ΔS mutant
T2 peptide: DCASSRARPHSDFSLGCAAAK

T3: synthetic peptide hFn14 sub-domain 3 (human, cysteine pairing not given here)
T3 construct: also called sub-domain 3 peptide
T3 peptide: ASCRARPHSDFCLGK(Biotin)

B1: CRCBT-06-001 (antibody, IgG2b, V domains shown)
VH: QVQLQQSGGGLVQPGGSMKLSCIASGFTFSSYWMSWVRQSPEKGLEWVAEIRSKSDNYATHYAESVKGKFTISRDDSKSRFFLQMNNLRAEDTGIYYCSSTYADYFHYWGQGTDLTVSS
VL: DIVMTQTPASLAVSLGQRATISCRASQSVSTSTYSYMHWYQQKPGQPPKLLIKYASSLESGVPARFSGSGSGTDFTLNIHPVEEDDTATYYCQHSWEIPYTFGGGTKLEIKR
B2: CRCBT-06-002 (antibody, IgG1, V domains shown)
VH: EVKLQQSGGGLVQPGGSMKLSCVASGFTFSYYWMNWVRQSPEQGLEWIAEIRLQSNDYPTHYAESVKGRFTISRDDSKNSVYLQMNNLRPEDTGIYYCACRYADYFDHWGQGTTLTVSS
VL: DTVLTQSPASLVVSLGQRATISCRASQSVSTSDYSYIHWYQQKPGQPPKFLIKYASNRDSGVPARFSGSGSGTDFTLNIHPVEEDDTAIYYCQHSWEIPPTFGAGTKLELQR

Legend:
human Fn14 = target: T1, human Fn14; experiment: cell-based or functional assay
[1] = target: T2, synthetic peptide Sub-domain 2 Cys 4&5 …; experiment: peptide ELISA: biotinylated synthetic peptide on neutravidin plate, antibody titrated (legend: 1-0.0001 µg/ml; axis 'Log (c)'), anti-mouse HRP, TMB, OD 450 nm
[2] = target: phage expressed hFn14 mutant D62A (human, UniProt Q9NP84 28-77); experiment: phage ELISA (Method 2): antibody coated on the plate, 10-fold dilutions of phage displaying hFn14 D62A; biotin anti-M13 antibody, streptavidin-HRP, TMB, OD 450 nm; x axis = dilution of phage
Source text: (§1) ELISAs showing the reactivity of mutant hFn14 phage constructs with the anti-Fn14 monoclonal antibodies CRCBT-06-001, CRCBT-06-002, CRCBT-06-004 compared to ITEM-1 and ITEM-4. Binding was detected using Biotin-conjugated anti-M13-phage monoclonal antibody followed by HRP-conjugated Streptavidin and TMB substrate. Optical density at 450 nm was quantified using a Spectramax spectrophotometer. Error bars for each dilution represent the standard deviation of duplicate assays. FIG. 28A L46A, FIG. 28B D51A and FIG. 28C D62A. In all cases error bars represent the standard deviation. X axis=dilution of phage. Methods according to Epitope mapping using phage expressed Fn14—Method 2.
(§2) The wells of Maxisorp immunoplates (Nunc) were coated overnight at 4° C. with the target monoclonal antibodies or recombinant Tweak-Fc at a concentration of 1.5 μg/ml in PBS. mAb 5G8 was used as a negative control for ELISA plates coated with tested antibodies. […] 10-fold serial dilutions of phage were made using PBS solution and phage dilutions were added to the coated, blocked ELISA plates for 1 hour, shaking at room temperature. […]
(§3) Method A: HRP-conjugated anti-M13-phage antibody (GE Healthcare) at a 1/5000 dilution in PBS was then added to the wells of the ELISA plates for 1 hour, shaking at room temperature. […] Optical density at 450 nm was quantified using a Spectramax absorbance spectrophotometer.

[3] = target: T3, synthetic peptide hFn14 sub-domain 3; experiment: ELISA on biotinylated sub-domain 3 peptide, mAb at 0.2 ug/ml
Procedure: An additional lysine residue was added to the C-terminus in order to attach a biotin moiety and to enable the peptides to bind to neutravidin coated plates (Pre-blocked; Pierce). For these experiments, a control peptide with a biotin at the C-terminus was used as a negative control and isotype control antibodies were also used.
The ELISA was performed essentially according to the manufacturer's recommended protocol (Pierce). Briefly, peptide was coated onto wells (in duplicate) at 1-10 μg/ml for 2 hours at room temperature. Wells were washed in PBS/0.05% Tween 20/0.1% BSA 3 times and dilutions of each antibody were added in wash buffer for 1 hour with gentle agitation. After another three washes anti-mouse HRP-conjugated to horse radish peroxidase (HRP; Chemicon) was added at 1/1000 dilution for 1 hour shaking. Finally, after 4 further washes the plate was developed using TMB (3,3′,5,5′-tetramethylbenzidine) substrate (Pierce), and the reaction was stopped using 2M H2SO4 solution. Optical density at 450 nm was quantified using a Spectromax absorbance spectrophotometer.
The reactivity of CRCBT-06-001 CRCBT-06-002, CRCBT-06-003, CRCBT-06-004, CRCBT-06-005, CRCBT-06-006 and CRCBT-06-007 with sub-domain 3 was lower than for sub-domain 2, indicating this region may be a partial epitope for these antibodies. However, the differences in binding to this region could reveal subtle variations in the contact regions of the antibodies with hFn14. The order of binding from strongest to weakest was CRCBT-06-005, CRCBT-06-002, CRCBT-06-001, CRCBT-06-006, CRCBT-06-007 and ITEM-1. The relative binding of each antibody to sub-domain 3 at a single point in the linear region of the curves was measured at 0.2 µg/ml (FIG. 21C). […] This could indicate the epitope of ITEM-1 may differ slightly to the CRCBT antibodies based on weaker interaction with surface exposed residues in sub-domain 3.

[4] = target: phage expressed hFn14 mutant L46A (human, UniProt Q9NP84 28-77); experiment: phage ELISA (Method 2): antibody coated on the plate, 10-fold dilutions of phage displaying hFn14 L46A; biotin anti-M13 antibody, streptavidin-HRP, TMB, OD 450 nm; x axis = dilution of phage
Source text: as §1, §2, §3

Sequence of phage expressed hFn14 mutant L46A (Q9NP84 28-77 L46A): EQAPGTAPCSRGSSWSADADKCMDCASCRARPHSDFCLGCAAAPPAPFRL

% Agonist, IL-8 secretion by A375 cells (human Fn14) | binding result [1] | binding result [2] | % decrease in binding compared with CRCBT-06-005 [3] | binding result [4] | % Antagonist, IL-8 secretion by A375 cells (human Fn14) | Binder
128% | binds | binds | 60% | binds |  | B1
11% | binds | binds | 43% | binds | 94% | B2
